Measurements taken from US20060024724A1.

Molecular target: oncofetal fibronectin (human) (UniProt P02751)
Experiment: lateral-flow sandwich test strip (mobile FDC-6 conjugate, goat polyclonal anti-fibronectin capture), TLiIQ reflectance reader, at 50 ng/ml oncofetal fibronectin

Sequence of UniProt P02751 (P02751 32-2477): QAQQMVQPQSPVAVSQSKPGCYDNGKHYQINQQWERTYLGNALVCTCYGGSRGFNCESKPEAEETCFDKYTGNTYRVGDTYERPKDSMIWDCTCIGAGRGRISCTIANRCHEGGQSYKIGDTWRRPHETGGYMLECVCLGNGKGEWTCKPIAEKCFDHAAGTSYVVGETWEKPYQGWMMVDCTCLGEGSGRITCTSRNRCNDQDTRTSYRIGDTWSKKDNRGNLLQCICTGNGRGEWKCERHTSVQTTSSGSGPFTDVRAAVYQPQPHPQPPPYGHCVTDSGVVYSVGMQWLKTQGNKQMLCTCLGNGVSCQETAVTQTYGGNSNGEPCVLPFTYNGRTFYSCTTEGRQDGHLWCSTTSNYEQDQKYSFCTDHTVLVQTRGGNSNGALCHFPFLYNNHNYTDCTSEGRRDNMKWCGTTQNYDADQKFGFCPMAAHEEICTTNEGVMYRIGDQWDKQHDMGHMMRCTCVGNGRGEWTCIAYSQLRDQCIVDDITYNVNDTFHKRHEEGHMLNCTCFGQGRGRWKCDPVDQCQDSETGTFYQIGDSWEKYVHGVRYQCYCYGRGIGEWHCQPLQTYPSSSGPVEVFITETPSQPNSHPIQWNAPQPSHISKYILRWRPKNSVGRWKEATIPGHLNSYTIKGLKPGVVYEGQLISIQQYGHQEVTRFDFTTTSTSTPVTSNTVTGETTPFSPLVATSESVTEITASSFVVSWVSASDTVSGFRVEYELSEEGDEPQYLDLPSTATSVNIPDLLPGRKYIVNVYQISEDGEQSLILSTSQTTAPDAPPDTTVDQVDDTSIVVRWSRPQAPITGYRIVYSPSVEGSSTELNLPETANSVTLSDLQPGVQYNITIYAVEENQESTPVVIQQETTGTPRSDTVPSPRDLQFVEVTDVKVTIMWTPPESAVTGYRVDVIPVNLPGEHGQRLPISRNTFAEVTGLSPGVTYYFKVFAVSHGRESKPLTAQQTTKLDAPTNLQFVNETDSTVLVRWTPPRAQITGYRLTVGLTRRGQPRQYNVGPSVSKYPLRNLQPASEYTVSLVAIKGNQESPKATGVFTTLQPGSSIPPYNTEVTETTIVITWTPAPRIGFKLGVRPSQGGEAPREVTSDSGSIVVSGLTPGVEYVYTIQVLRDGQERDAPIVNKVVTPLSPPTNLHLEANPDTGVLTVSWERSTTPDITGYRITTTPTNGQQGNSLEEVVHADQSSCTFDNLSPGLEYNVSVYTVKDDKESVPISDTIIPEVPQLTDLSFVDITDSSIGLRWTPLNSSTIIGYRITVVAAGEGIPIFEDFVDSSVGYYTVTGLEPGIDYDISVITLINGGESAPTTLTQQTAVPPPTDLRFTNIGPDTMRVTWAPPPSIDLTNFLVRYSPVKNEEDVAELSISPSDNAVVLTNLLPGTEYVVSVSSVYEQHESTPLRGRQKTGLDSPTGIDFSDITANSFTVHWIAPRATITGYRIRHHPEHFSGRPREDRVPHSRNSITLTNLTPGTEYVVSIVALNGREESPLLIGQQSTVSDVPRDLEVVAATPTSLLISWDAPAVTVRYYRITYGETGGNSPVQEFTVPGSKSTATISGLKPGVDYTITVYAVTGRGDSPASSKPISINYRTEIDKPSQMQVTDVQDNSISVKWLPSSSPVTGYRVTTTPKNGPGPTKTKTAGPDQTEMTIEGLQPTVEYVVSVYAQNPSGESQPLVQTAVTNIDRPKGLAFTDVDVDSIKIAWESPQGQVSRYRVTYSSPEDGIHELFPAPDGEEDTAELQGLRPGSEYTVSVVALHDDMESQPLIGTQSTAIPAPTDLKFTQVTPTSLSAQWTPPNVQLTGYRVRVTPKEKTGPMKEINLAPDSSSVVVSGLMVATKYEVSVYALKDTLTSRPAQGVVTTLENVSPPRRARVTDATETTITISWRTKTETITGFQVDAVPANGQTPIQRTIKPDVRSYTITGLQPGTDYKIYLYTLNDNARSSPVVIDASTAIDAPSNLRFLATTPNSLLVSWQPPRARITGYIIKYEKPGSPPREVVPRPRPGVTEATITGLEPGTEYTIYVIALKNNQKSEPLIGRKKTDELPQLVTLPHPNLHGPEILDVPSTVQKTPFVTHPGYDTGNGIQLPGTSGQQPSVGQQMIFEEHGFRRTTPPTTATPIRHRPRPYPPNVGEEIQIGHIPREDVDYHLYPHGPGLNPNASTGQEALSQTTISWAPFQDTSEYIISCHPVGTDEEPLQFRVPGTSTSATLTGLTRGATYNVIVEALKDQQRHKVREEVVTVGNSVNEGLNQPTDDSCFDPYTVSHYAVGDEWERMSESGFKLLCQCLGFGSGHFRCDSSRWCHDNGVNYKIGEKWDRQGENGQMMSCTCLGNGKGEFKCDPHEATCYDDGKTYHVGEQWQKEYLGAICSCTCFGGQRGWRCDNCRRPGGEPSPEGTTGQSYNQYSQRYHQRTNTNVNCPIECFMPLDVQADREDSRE

- reflectance signal: 0.315
Substance: FDC-6 monoclonal antibody (produced by hybridoma ATCC HB 9018)
